Among the targets are MAGI1_2, Q96QZ7; PICK1, Q9NRD5; GRID2IP_2, A4D2P6; Inadl_6, Q8NI35; SNX27, Q96L92; LNX1_2, Q8TBB1; GRASP, Q7Z6J2; LAP2, Q96RT1; FRMPD2_3, Q68DX3; FRMPD2_2, Q68DX3.
What all share (assay): holdup assay
Common to all, as to design: key: below the threshold = too weak to quantify, mostly under pKd 3.1 to 4

The target of another assay is T1, PDZD2_2, O15018.
T1 sequence (O15018 329-429, limits assumed, looked up): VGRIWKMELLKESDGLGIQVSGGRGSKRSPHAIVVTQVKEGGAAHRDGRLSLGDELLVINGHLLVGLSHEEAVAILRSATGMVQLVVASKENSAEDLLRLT

In another assay the target is T2, GRIP1_4, Q9Y3R0.
T2 sequence (Q9Y3R0 467-571, limits assumed, looked up): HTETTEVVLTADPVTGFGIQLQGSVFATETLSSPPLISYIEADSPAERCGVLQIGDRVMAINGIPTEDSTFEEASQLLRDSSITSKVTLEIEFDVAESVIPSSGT

In a further assay the target is T3, TIAM2, Q8IVF5.
T3 sequence (Q8IVF5 885-986, limits assumed, looked up): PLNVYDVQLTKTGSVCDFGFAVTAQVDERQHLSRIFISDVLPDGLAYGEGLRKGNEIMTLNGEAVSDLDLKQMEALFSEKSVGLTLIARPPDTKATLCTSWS

Another assay concerns the target T4, SNTB1, Q13884.
T4 sequence (Q13884 107-205, limits assumed, looked up): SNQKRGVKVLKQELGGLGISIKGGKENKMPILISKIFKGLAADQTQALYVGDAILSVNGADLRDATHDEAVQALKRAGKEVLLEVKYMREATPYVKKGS

The next assay deals with T5, APBA1_1, Q02410.
T5 sequence (Q02410 651-752, limits assumed, looked up): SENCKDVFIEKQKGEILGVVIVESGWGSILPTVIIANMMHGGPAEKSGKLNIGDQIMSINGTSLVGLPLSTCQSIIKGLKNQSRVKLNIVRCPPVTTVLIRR

The target of another assay is T6, DVL3, Q92997.
T6 sequence (Q92997 244-331, limits assumed, looked up): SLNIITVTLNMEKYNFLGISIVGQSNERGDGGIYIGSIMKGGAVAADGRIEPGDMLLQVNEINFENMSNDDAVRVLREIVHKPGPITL

Another assay concerns the target T7, DLG3_2, Q92796.
T7 sequence (Q92796 221-321, limits assumed, looked up): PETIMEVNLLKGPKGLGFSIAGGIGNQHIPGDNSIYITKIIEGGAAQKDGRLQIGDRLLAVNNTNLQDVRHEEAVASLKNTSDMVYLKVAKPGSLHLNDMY

A further assay has as its target T8, LIN7C, Q9NUP9.
T8 sequence (Q9NUP9 88-185, limits assumed, looked up): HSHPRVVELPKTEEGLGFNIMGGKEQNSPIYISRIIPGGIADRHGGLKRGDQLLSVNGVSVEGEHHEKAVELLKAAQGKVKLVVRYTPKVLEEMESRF

The target in the next assay is T9, MPDZ_5, O75970.
T9 sequence (O75970 695-796, limits assumed, looked up): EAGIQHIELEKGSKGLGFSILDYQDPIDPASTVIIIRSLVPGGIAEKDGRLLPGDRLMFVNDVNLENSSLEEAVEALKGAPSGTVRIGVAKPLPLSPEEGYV

The target of another assay is T10, ARHGEF11, O15085.
T10 sequence (O15085 42-136, limits assumed, looked up): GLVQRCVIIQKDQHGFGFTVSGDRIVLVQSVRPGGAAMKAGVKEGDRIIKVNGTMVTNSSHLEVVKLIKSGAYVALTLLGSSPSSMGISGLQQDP

The target in a further assay is T11, MPDZ_10, O75970.
T11 sequence (O75970 1624-1722, limits assumed, looked up): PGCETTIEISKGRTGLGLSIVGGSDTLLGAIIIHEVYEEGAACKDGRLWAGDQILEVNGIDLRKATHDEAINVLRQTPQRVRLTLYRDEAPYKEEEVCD

The target in a further assay is T12, LIN7B, Q9HAP6.
T12 sequence (Q9HAP6 88-185, limits assumed, looked up): T8 sequence (Q9NUP9 88-185, limits assumed, looked up) with S2A, E13D, I35V, I40V, H65Q, K79S, K89R, S96A

For the next assay, the target named is T13, TX1BP3, O14907.
T13 sequence (O14907 10-122, limits assumed, looked up): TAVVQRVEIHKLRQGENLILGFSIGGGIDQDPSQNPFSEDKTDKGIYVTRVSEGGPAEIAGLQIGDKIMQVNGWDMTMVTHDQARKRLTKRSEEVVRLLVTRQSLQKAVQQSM

The mark [1] stands for this setting: plain residues with an end cap or a label only (N-terminal biotin on a linker: ado-ado).
[2] abbreviates: modified: phospho on T at position -2 from the C-terminal residue.

Numbering of substitutions follows the chain as printed.

Chain of GRID2IP_2, A4D2P6 (A4D2P6 272-370): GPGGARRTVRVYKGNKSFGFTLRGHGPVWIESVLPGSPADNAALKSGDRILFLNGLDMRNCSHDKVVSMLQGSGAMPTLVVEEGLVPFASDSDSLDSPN
Chain of FRMPD2_3, Q68DX3 (Q68DX3 1073-1166): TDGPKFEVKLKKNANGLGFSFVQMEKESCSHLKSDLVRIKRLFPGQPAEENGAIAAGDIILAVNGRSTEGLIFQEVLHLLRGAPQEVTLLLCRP
Chain of GRASP, Q7Z6J2 (Q7Z6J2 96-193): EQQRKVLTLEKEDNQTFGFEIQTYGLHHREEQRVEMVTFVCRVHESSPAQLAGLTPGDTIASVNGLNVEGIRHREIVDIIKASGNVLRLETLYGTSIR
Chain of FRMPD2_2, Q68DX3 (Q68DX3 944-1038): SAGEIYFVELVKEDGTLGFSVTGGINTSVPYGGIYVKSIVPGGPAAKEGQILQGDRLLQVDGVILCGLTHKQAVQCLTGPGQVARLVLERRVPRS
Chain of PICK1, Q9NRD5 (Q9NRD5 17-115): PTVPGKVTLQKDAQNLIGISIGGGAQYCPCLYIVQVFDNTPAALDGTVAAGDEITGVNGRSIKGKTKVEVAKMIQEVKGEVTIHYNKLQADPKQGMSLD
Chain of Inadl_6, Q8NI35 (Q8NI35 1058-1167): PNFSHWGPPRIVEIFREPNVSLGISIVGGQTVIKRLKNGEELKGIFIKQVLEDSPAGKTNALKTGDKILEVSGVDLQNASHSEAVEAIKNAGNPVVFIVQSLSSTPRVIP
Chain of MAGI1_2, Q96QZ7 (Q96QZ7 456-580): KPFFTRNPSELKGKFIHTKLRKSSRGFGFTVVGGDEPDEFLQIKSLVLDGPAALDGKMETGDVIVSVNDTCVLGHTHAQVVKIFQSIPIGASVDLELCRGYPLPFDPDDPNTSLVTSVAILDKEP
Chain of LAP2, Q96RT1 (Q96RT1 other isoform, or with tags, fused parts or gaps): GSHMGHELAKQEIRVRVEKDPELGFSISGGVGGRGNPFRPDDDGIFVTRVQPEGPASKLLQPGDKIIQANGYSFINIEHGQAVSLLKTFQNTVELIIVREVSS
Chain of LNX1_2, Q8TBB1 (Q8TBB1 371-470): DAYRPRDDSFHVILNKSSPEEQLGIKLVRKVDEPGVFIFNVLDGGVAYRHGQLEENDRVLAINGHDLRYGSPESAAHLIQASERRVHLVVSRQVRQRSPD

The term pKd denotes the Kd on a negative log10 scale, so that one unit is a factor of ten. As to SAGADSETHC [SLCO1B1, Q9Y6L6], the pKd with PDZD2_2, O15018 (setting [1]) is 3.68; with GRIP1_4, Q9Y3R0 (setting [1]), “below the threshold”; in the assay with TIAM2, Q8IVF5 (setting [1]), “below the threshold”; in the assay with SNTB1, Q13884 (setting [1]), 3.87; with MAGI1_2, Q96QZ7 (setting [1]) it was “below the threshold”; with APBA1_1, Q02410 (setting [1]) it was “below the threshold”. Further, the pKd result in the assay with PICK1, Q9NRD5 (setting [1]) is “below the threshold”; with DVL3, Q92997 (setting [1]) it was “below the threshold”; in the assay with GRID2IP_2, A4D2P6 (setting [1]) it was “below the threshold”; with Inadl_6, Q8NI35 (setting [1]) it was “below the threshold”; with DLG3_2, Q92796 (setting [1]), “below the threshold”; with LIN7C, Q9NUP9 (setting [1]), 3.93. The pKd entry with MPDZ_5, O75970 (setting [1]) was “below the threshold”; with ARHGEF11, O15085 (setting [1]) it was “below the threshold”; with SNX27, Q96L92 (setting [1]), 4.65; with LNX1_2, Q8TBB1 (setting [1]) it was “below the threshold”; in the assay with GRASP, Q7Z6J2 (setting [1]) it was “below the threshold”; with MPDZ_10, O75970 (setting [1]), “below the threshold”. The pKd result with LAP2, Q96RT1 (setting [1]) was “below the threshold”; with FRMPD2_3, Q68DX3 (setting [1]), “below the threshold”; with FRMPD2_2, Q68DX3 (setting [1]), “below the threshold”; with LIN7B, Q9HAP6 (setting [1]), 3.69; with TX1BP3, O14907 (setting [1]), “below the threshold”.
As to SRSRRRETAL [HPV33-E6_-2P, P06427], the pKd result with PDZD2_2, O15018 (setting [2]) is reported as “below the threshold”; with GRIP1_4, Q9Y3R0 (setting [2]) it was “below the threshold”; with TIAM2, Q8IVF5 (setting [2]), “below the threshold”; with SNTB1, Q13884 (setting [2]) it was “below the threshold”; with MAGI1_2, Q96QZ7 (setting [2]) it was “below the threshold”; with APBA1_1, Q02410 (setting [2]), “below the threshold”. Further, the pKd entry in the assay with PICK1, Q9NRD5 (setting [2]) is “below the threshold”; with DVL3, Q92997 (setting [2]), “below the threshold”; in the assay with GRID2IP_2, A4D2P6 (setting [2]) it was “below the threshold”; with Inadl_6, Q8NI35 (setting [2]), “below the threshold”; with DLG3_2, Q92796 (setting [2]) it was “below the threshold”; with LIN7C, Q9NUP9 (setting [2]), 4.08. The pKd result in the assay with MPDZ_5, O75970 (setting [2]) is “below the threshold”; with ARHGEF11, O15085 (setting [2]), “below the threshold”; in the assay with SNX27, Q96L92 (setting [2]), “below the threshold”; with LNX1_2, Q8TBB1 (setting [2]) it was “below the threshold”; with GRASP, Q7Z6J2 (setting [2]) it was “below the threshold”; with MPDZ_10, O75970 (setting [2]), “below the threshold”. Also, the pKd entry in the assay with LAP2, Q96RT1 (setting [2]) was “below the threshold”; in the assay with FRMPD2_3, Q68DX3 (setting [2]), “below the threshold”; with FRMPD2_2, Q68DX3 (setting [2]), “below the threshold”; in the assay with LIN7B, Q9HAP6 (setting [2]), “below the threshold”; with TX1BP3, O14907 (setting [2]), “below the threshold”.
As to DYSNLRETDI [ADRA1D, P25100], the pKd was 4.18 with PDZD2_2, O15018 (setting [1]); “below the threshold” with GRIP1_4, Q9Y3R0 (setting [1]); “below the threshold” with TIAM2, Q8IVF5 (setting [1]); 5.57 with SNTB1, Q13884 (setting [1]); “below the threshold” in the assay with MAGI1_2, Q96QZ7 (setting [1]); “below the threshold” with APBA1_1, Q02410 (setting [1]). The pKd was 4.1 with PICK1, Q9NRD5 (setting [1]); “below the threshold” with DVL3, Q92997 (setting [1]); “below the threshold” with GRID2IP_2, A4D2P6 (setting [1]); 3.73 with Inadl_6, Q8NI35 (setting [1]); 4.39 in the assay with DLG3_2, Q92796 (setting [1]); 4.05 with LIN7C, Q9NUP9 (setting [1]). Further, the pKd result with MPDZ_5, O75970 (setting [1]) is “below the threshold”; with ARHGEF11, O15085 (setting [1]) it was “below the threshold”; in the assay with SNX27, Q96L92 (setting [1]), 4.21; with LNX1_2, Q8TBB1 (setting [1]), “below the threshold”; in the assay with GRASP, Q7Z6J2 (setting [1]), “below the threshold”; with MPDZ_10, O75970 (setting [1]) it was “below the threshold”. The pKd is 3.84 with LAP2, Q96RT1 (setting [1]); “below the threshold” in the assay with FRMPD2_3, Q68DX3 (setting [1]); “below the threshold” with FRMPD2_2, Q68DX3 (setting [1]); 3.62 with LIN7B, Q9HAP6 (setting [1]); 4.51 with TX1BP3, O14907 (setting [1]).
GVHSNDHSVV [LPAR1, Q92633]: the pKd in the assay with PDZD2_2, O15018 (setting [1]) was 4.99; with GRIP1_4, Q9Y3R0 (setting [1]), “below the threshold”; with TIAM2, Q8IVF5 (setting [1]), 3.94; with SNTB1, Q13884 (setting [1]) it was 3.69; with MAGI1_2, Q96QZ7 (setting [1]), “below the threshold”; with APBA1_1, Q02410 (setting [1]), “below the threshold”. Further, the pKd result with PICK1, Q9NRD5 (setting [1]) is “below the threshold”; with DVL3, Q92997 (setting [1]) it was “below the threshold”; with GRID2IP_2, A4D2P6 (setting [1]) it was 3.96; in the assay with Inadl_6, Q8NI35 (setting [1]), “below the threshold”; with DLG3_2, Q92796 (setting [1]), 4.42; in the assay with LIN7C, Q9NUP9 (setting [1]), “below the threshold”. For the same molecule, the pKd entry was “below the threshold” with MPDZ_5, O75970 (setting [1]); 3.58 in the assay with ARHGEF11, O15085 (setting [1]); “below the threshold” with SNX27, Q96L92 (setting [1]); “below the threshold” with LNX1_2, Q8TBB1 (setting [1]); 4.47 with GRASP, Q7Z6J2 (setting [1]); “below the threshold” with MPDZ_10, O75970 (setting [1]). For the same molecule, the pKd entry with LAP2, Q96RT1 (setting [1]) was “below the threshold”; with FRMPD2_3, Q68DX3 (setting [1]) it was “below the threshold”; with FRMPD2_2, Q68DX3 (setting [1]) it was “below the threshold”; with LIN7B, Q9HAP6 (setting [1]), 3.64; in the assay with TX1BP3, O14907 (setting [1]), “below the threshold”.

The values above are taken from publication PMC9482650, “Quantitative fragmentomics allow affinity mapping of interactomes” (Nature Communications, 2022).
